Laboratory results taken from article PMC11452484.

Legend:
[1] = target: short pAgo (SPARSA Ago subunit);Sir2-APAZ N142A (Geobacter sulfurreducens;Geobacter …, UniProt Q74DF5;Q74DF6 1-473;1-587, |N142A); test: cryo-EM structure
[2] = target: short pAgo (SPARSA Ago subunit);Sir2-APAZ (Geobacter sulfurreducens;Geobacter …, UniProt Q74DF5;Q74DF6 1-473;1-587, |); test: SEC

B1: gRNA-target ssDNA (DNA:RNA)
RNA: AUUCCUGUUAGAGCUGUUAAC
DNA: AAGTTAACAGCTCTAACAGGAATAA
modifications: 5'-phosphate on guide RNA
B1: binds [1]; binds [2].
